{"source": "the DeepSol protein solubility set", "data": [{"assay": "soluble on expression in E. coli; label from the status in PepcDB or PDB records", "values": [{"sequence": "GHMDIAEPAELDADELKRVLEALLLVIDTPVTADALAAATEQPVYRVAAKLQLMADELTGRDSGIDLRHTSEGWRMYTRARFAPYVEKLLLDGARTKLTRAALETLAVVAYRQPVTRARVSAVRGVNVDAVMRTLLARGLITEVGTDADTGAVTFATTELFLERLGLTSLSELPDIAPLLPDVDTIDDLSESLDSEPRFIKLTGELASEQTLSFDVDRD", "soluble on expression in E. coli": "soluble"}, {"sequence": "GHMEERVLGMPAVESNMFPLGKQAPPFALTNVIDGNVVRLEDVKSDAATVIMFICNHCPFVKHVQHELVRLANDYMPKGVSFVAINSNDAEQYPEDSPENMKKVAEELGYPFPYLYDETQEVAKAYDAACTPDFYIFDRDLKCVYRGQLDDSRPNNGIPVTGESIRAALDALLEGRPVPEKQKPSIGCSIKWKPSA", "soluble on expression in E. coli": "soluble"}, {"sequence": "GHMFESAEVGHSIDKDTYEKAVIELREALLEAQFELKQQARFPVIILINGIEGAGKGETVKLLNEWMDPRLIEVQSFLRPSDEELERPPQWRFWRRLPPKGRTGIFFGNWYSQMLYARVEGHIKEAKLDQAIDAAERFERMLCDEGALLFKFWFHLSKKQLKERLKALEKDPQHSWKLSPLDWKQSEVYDRFVHYGERVLRRTSRDYAPWYVVEGADERYRALTVGRILLEGLQAALATKERAKRQPHAAPLVSSLDNRGLLDSLDLGQYLDKDAYKEQLAAEQARLAGLIRDKRFRQHSLVAVFEGNDAAGKGGAIRRVTDALDPRQYHIVPIAAPTEEERAQPYLWRFWRHIPARRQFTIFDRSWYGRVLVERIEGFCAPADWLRAYGEINDFEEQLSEYGIIVVKFWLAIDKQTQMERFKEREKTPYKRYKITEEDWRNRDKWDQYVDAVGDMVDRTSTEIAPWTLVEANDKRFARVKVLRTINDAIEAAYKKDKGA", "soluble on expression in E. coli": "soluble"}, {"sequence": "GILRTQHTIRDSELNIKNSKMSDSVNARESNVYMAKLAEQAERYDEMAKYMKDVVEARQESEELTVEERNLLSVAYKNAVGSRRSSWRIISSVEQKEHSRNAEDASKMCGKYRSKVEAELTDICNDILTMLDKHLIPTATSPDSKVFYFKMKGDYHRYISEFSTGDSKQSSAEDALKAYKDATVVAKDLEPTHPIRLGLALNFSVFHYEILNEPRAAIDMAKEAFEMAIEQLDKLSEDCYKDSTLIMQLLRDNLTLWTAD", "soluble on expression in E. coli": "soluble"}, {"sequence": "GLDVAISQNGFFRLVDSNGSVFYSRNGQFKLDENRNLVNMQGMQLTGYPATGTPPTIQQGANPAPITIPNTLMAAKSTTTASMQINLNSTDPVPSKTPFSVSDADSYNKKGTVTVYDSQGNAHDMNVYFVKTKDNEWAVYTHDSSDPAATAPTTASTTLKFNENGILESGGTVNITTGTINGATAATFSLSFLNSMQQNTGANNIVATNQNGYKPGDLVSYQINNDGTVVGNYSNEQEQVLGQIVLANFANNEGLASQGDNVWAATQASGVALLGTAGSGNFGKLTNGALEASNVDLSK", "soluble on expression in E. coli": "soluble"}, {"sequence": "GLISDIIACPGMDYCALATARSIPVAQEIATRFEELKLEHEIGALKIKISGCINACGHHHVGHIGILGLDRAGVENYQITLGGDATETAAIGERTGPGFAYDQIVPAVERIVETYLDQRRDREESFIETYRRVGMAPFKAALYPE", "soluble on expression in E. coli": "not soluble"}, {"sequence": "GLIVDTRDVEERVHVMRKTKLAPTVAHGVFNPEFGPAALSNKDPRLNEGVVLDEVIFSKHKGDTKMSAEDKALFRRCAADYASRLHSVLGTANAPLSIYEAIKGVDGLDAMEPDTAPGLPWALQGKRRGALIDFENGTVGPEVEAALKLMEKREYKFACQTFLKDEIRPMEKVRAGKTRIVDVLPVEHILYTRMMIGRFCAQMHSNNGPQIGSAVGCNPDVDWQRFGTHFAQYRNVWDVDYSAFDANHCSDAMNIMFEEVFRTEFGFHPNAEWILKTLVNTEHAYENKRITVEGGMPSGCSATSIINTILNNIYVLYALRRHYEGVELDTYTMISYGDDIVVASDYDLDFEALKPHFKSLGQTITPADKSDKGFVLGHSITDVTFLKRHFHMDYGTGFYKPVMASKTLEAILSFARRGTIQEKLISVAGLAVHSGPDEYRRLFEPFQGLFEIPSYRSLYLRWVNAVCGDAAALE", "soluble on expression in E. coli": "soluble"}, {"sequence": "GLKEHDFNPEEAEETKQVSWKLVTEYAMETKCDDVLLLLGMYLEFQYSFEMCLKCIKKEQPSHYKYHEKHYANAAIFADSKNQKTICQQAVDTVLAKKRVDSLQLTREQMLTNRFNDLLDRMDIMFGSTGSADIEEWMAGVAWLHCLLPKMDSVVYDFLKCMVYNIPKKRYWLFKGPIDSGKTTLAAALLELCGGKALNVNLPLDRLNFELGVAIDQFLVVFEDVKGTGGESRDLPSGQGINNLDNLRDYLDGSVKVNLEKKHLNKRTQIFPPGIVTMNEYSVPKTLQARFVKQIDFRPKDYLKHCLERSEFLLEKRIIQSGIALLLMLIWYRPVAEFAQSIQSRIVEWKERLDKEFSLSVYQKMKFNVAMGIGVLD", "soluble on expression in E. coli": "soluble"}, {"sequence": "GMDELELRIRKAEKLVQDAKKEFEMGLYERCCSTAYYAMFHAAKAMLLGYGRDSKTHRGTIYLIWECREELGLSDDDCSKLSRAFDLREESDYGIYKEVSKDLAIKILKDAEIFVQKAKNAVNKNR", "soluble on expression in E. coli": "soluble"}, {"sequence": "GMDETPIFKIKKLTIAENDRSEYIRYAEKNMHDSIPAEEGTLLIGSGHDDAHGEDNYEIEVFRNKGAEDLHIAGSHADDFVETVNKIATKQKVIDLHPEVITTKAQRALNSYADNFVMRLIKVEVKDADAEKFSHAVKKEMTTSMASEPGMEIMMSGTNIDNPNEWYFIEVYANDEAYDIHVKTPHYKEYIEETDGMVKSRDVKTLVRDTLATQGAIVLD", "soluble on expression in E. coli": "soluble"}, {"sequence": "GMDNVAEYRKLIKQVLTEYDNLSRQSPETNYETCLVFDENHDNYLWLAVDWQGSKRIKYTYVHIRIKNEKIYIEEDYTEEGIATELMRLGVTNNDIVLAFHPPDVRKFTDFATA", "soluble on expression in E. coli": "soluble"}, {"sequence": "GMDVLQKEIDEVYATHPTAHEALDNGIVEQHQQFVRSLTEVNGGCAVISDLSNRKSYVTVHPWANFLGLTPEEAALSVIDSMDEDCIYRRIHPEDLVEKRLMEYKFFQKTFSMSPGERLKYRGRCRLRMMNEKGVYQYIDNLVQIMQNTPAGNVWLIFCLYSLSADQRPEQGIYATITQMERGEVETLSLSEEHRNILSEREKEILRCIRKGLSSKEIAATLYISVNTVNRHRQNILEKLSVGNSIEACRAAELMKLL", "soluble on expression in E. coli": "soluble"}, {"sequence": "GMDYNQTVLSHLQKFWKHHDIKGFTWTLGRIVEELPDFQVFQVIPNHEDEPWVYVSSGIGQFLGQEFFIISPFETPEHIETLAMLASASMHYPDQFQLGKTVNIGRPWVEQSSFRHFLISLPYPYGQELEYMDNVRFFWLLPITQTERLFLNTHSVEELETKFDEAGIDYLDINRASTVWQAG", "soluble on expression in E. coli": "soluble"}, {"sequence": "GMEKKSSYKTVLLGESSVGKSSIVLRLTKDTFHENTNTTIGASFCTYVVNLNDINIKNNSNNEKNNNINSINDDNNVIITNQHNNYNENLCNIKFDIWDTAGQERYASIVPLYYRGATCAIVVFDISNSNTLDRAKTWVNQLKISSNYIIILVANKIDKNKFQVDILEVQKYAQDNNLLFIQTSAKTGTNIKNIFYMLAEEIYKNIIN", "soluble on expression in E. coli": "soluble"}, {"sequence": "GMELPVVVQQALGDNAPGVSFRSVSQIDTGHLLRMVLLSDDQGNLQAICRRNDMLDLEALNKRLGRDLRMMQRREQVRVRQKAGLQELPALPSLTGWPTVVDRRVDELEAVALELGEQDLGLMMPAEDFRQLTAKAARHDFAVDTANISVNLDNHAADRDQLHSAIKRFTGLRIQQRLEDTLELPPLPETAQRIIHLRVNPNAVMGDLVDVVESDPSLAAQVVSWASSSFYAAAGRVHSVHDAVSRVLGFDLVMNLAMGLALGRALKHPQDHPDGYVDYWQQAIWQAQSAGILASMMPRGQRPLFGLAYLAGLLHNFGHLVLAQVFPPHFKLVCRSLEVSPHIDSSVIEHYLLGITREQIAAQLMENWGMPDEVTLAIRYQKNPAYDGPHNVYARLLWLGRQLLTERGVALGAGESATQAVYDELGLDRELVQEQFDELVRRKDSIMAMAGMMSQGG", "soluble on expression in E. coli": "soluble"}, {"sequence": "GMETTHYSIAQHFSSGDFPAVYACFNDIIEWNIIGNQVVKGKADVIDFCNKMLPEMKGAVLTNDNVIQNENQIVIEGKCRYFDAEGKEAFVSYCDIYRFENDTIKTITSYCI", "soluble on expression in E. coli": "soluble"}, {"sequence": "GMGILSGNPQDEPLHYGEVFSTWTYLSTNNGLINGYRSFINHTGDEDLKNLIDEAIQAMQDENHQLEELLRSNGVGLPPAPPDRPAARLDDIPVGARFNDPEISATISMDVAKGLVTCSQIIGQSIREDVALMFSQFHMAKVQFGGKMLKLNKNKGWLIPPPLHSDRPIKE", "soluble on expression in E. coli": "soluble"}, {"sequence": "GMGSLAEWYQRIPTPDDLTRVESLFANMQAQFPQLKLEFKWNQPMFTDHGTFIMGFNPSKKHLAVAIEPQTMTRFIPQIDKAGYDHSQIIRFPWHKPLDEQLIHDLIAYTIDQKKDATTFWQR", "soluble on expression in E. coli": "soluble"}]}]}
